Assay results taken from patent EP2605788B1.

How the values were obtained:
Test in all cases: cell-based or functional assay
CD20 (human) = CD20 (human) (UniProt P11836)
CD74 (human) = CD74 (human) (UniProt P04233)
CD22 (human) = CD22 (human) (UniProt P20273)

Chain of CD74 (human) (P04233 whole entry): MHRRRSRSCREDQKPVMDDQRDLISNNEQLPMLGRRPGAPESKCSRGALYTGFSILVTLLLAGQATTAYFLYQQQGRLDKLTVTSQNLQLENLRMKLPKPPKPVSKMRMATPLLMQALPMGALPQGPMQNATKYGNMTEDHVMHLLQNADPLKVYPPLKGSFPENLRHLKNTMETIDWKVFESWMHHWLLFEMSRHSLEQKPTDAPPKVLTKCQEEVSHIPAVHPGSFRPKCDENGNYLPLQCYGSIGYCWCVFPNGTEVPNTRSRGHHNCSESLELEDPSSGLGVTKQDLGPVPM
Chain of CD20 (human) (P11836 whole entry): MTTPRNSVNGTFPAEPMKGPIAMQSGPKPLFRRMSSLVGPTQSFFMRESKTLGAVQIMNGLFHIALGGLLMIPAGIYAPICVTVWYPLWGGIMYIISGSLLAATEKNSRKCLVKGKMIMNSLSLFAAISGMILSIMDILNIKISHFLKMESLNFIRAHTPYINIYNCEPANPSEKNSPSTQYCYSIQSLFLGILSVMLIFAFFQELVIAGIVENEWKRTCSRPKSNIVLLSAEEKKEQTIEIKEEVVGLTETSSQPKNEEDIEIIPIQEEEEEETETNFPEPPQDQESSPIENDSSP

| homotypic adhesion (%), JeKo-1, 10 nM, 2 h (CD20 (human)) [%] | homotypic adhesion (%), JeKo-1, 10 nM, 24 h (CD20 (human)) [%] | EC50, MTS assay, CLL (WAC, MEC-1), ALL (REH-1, MN60) and MM (CAG, RPMI8226, KMS11, KMS12-BM, KMS12-PE) lines (CD74 (human)) [pM] | homotypic adhesion (%), JeKo-1, 10 nM, 2 h (CD74 (human)) [%] | homotypic adhesion (%), JeKo-1, 10 nM, 24 h (CD74 (human)) [%] | Substance | EC50, in vitro cytotoxicity, Daudi and Ramos (CD20 (human)) [pM] | EC50, in vitro cytotoxicity, Jeko-1 (CD20 (human)) [pM] | fold more potent than 22-Rap, in vitro cytotoxicity, Jeko-1 (CD20 (human)) [fold] | in vitro cytotoxicity, NHL cell lines (CD20 (human)) [nM] | in vitro cytotoxicity, NHL cell lines (CD22 (human)) [nM] |
| --- | --- | --- | --- | --- | --- | --- | --- | --- | --- | --- |
| 90 | > 95 | > 100000 | 90 | > 95 | 20-(74)-(74) (bispecific antibody) |  |  |  |  |  |
| 90 | > 95 | > 100000 | 90 | > 95 | 74-(20)-(20) (bispecific antibody) |  |  |  |  |  |
|  |  |  |  |  | 20-Rap | 100 | 20 | 25 | > 1 |  |
|  |  |  |  |  | 22-Rap |  |  |  |  | > 1 |
